# Results reported in patent US6416738B1, “Pretargeting methods and compounds” (NeoRx Corporation, priority 1973, dated 2002).
# T1: NR-LU-10 antigen (Homo sapiens, UniProt P16422)
# T1 construct: Positive NR-LU-10 tissue reactivity indicates NR-LU-10 antigen expression by such tissues; from tissue; host or cells: carcinoma and normal tissue specimens
# T1 sequence (P16422 24-314): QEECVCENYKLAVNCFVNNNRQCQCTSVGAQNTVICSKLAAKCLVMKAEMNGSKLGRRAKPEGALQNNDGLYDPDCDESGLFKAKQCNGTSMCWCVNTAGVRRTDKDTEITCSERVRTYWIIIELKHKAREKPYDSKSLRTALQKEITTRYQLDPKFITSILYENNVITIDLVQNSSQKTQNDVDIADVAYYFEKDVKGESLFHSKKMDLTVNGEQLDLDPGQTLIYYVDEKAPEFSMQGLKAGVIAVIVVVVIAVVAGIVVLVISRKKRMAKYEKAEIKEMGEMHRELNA
# Target: T1, NR-LU-10 antigen
# Assay: NR-LU-10 reactivity with normal tissues (Table B)
# Type: binding
# Excerpt: Radioimmunoassays, immunoprecipitation and Fluorescence-Activated Cell Sorter (FACS) analysis were used to obtain reactivity profiles of NR-LU-10. The NR-LU-10 target antigen was present on either fixed cultured cells or in detergent extracts of various types of cancer cells. For example, the NR-LU-10 antigen is found in small cell lung, non-small cell lung, colon, breast, renal, ovarian, pancreatic, and other carcinoma tissues. Tumor reactivity of the NR-LU-10 antibody is set forth in Table A, while NR-LU-10 reactivity with normal tissues is set forth in Table B. The values in Table B are obtained as described below. Positive NR-LU-10 tissue reactivity indicates NR-LU-10 antigen expression by such tissues.
# The tissue specimens were scored in accordance with three reactivity parameters: (1) the intensity of the reaction; (2) the uniformity of the reaction within the cell type; and (3) the percentage of cells reactive with the antibody. These three values are combined into a single weighted comparative value between 0 and 500, with 500 being the most intense reactivity. This comparative value facilitates comparison of different tissues. Table B includes a summary reactivity value, the number of tissue samples examined and the number of samples that reacted positively with NR-LU-10.
# [1] = Salivary Gland: Acinar Epithelium
# [2] = Salivary Gland: Duct Epithelium
# [3] = Spleen: Lymphoid Follicle-Central
# [4] = Spleen: Lymphoid Follicle-Peripheral
# [5] = Spleen: Trabecular Smooth Muscle
# [6] = Stomach: Muscularis Mucosa/Externa
# [7] = Stromal Tissue: Arteriolar Smooth Muscle
# [8] = Stromal Tissue: Fibrous Connective Tissue
# [9] = Stromal Tissue: Mast Cells/Eosinophils
# [10] = Tonsil: Lymphoid Follicle-Central
# [11] = Tonsil: Lymphoid Follicle-Peripheral
# [12] = Urinary Bladder: Mucosal Epithelium
# [13] = Vagina/Cervix: Epithelial Glands
# [14] = Vagina/Cervix: Squamous Epithelium
molecule,measurement,setting,value
"NR-LU-10: 150 kilodalton IgG2b monoclonal antibody recognizing an approximately 40 kilodalton glycoprotein antigen expressed on most carcinomas (antibody, V domains shown) VH: EVQLQQSGAELVKPGASVRLSCTASGFNIKDTYMHWVIERPEQGLEWIGRIDPANGNTKCDPKFQGKATITADTSSNTAYLQLSSLTSEDTAVYYCSREVLTGTWSLDYWGQGTSVTVSS VL: DIQMIQSPSSMFASLGDRVSLSCRASQGIRGNLDWYQQKPGGTIKLLIYSTSNLNSGVPSRFSGSGSGSDYSLTISSLDSEDFADYYCLQRNAYPYTFGGGTKLEIK",Summary Reactivity,Nerve: Endoneurium,0
same,# Pos/Exam,Nerve: Neurolemma,0/2
same,Summary Reactivity,Nerve: Neurolemma,0
same,# Pos/Exam,Nerve: Neuron,0/2
same,Summary Reactivity,Nerve: Neuron,0
same,# Pos/Exam,Nerve: Perineurium,0/2
same,Summary Reactivity,Nerve: Perineurium,0
same,# Pos/Exam,Ovary: Corpus Luteum,0/3
same,Summary Reactivity,Ovary: Corpus Luteum,0
same,# Pos/Exam,Ovary: Eipthelium,1/1
same,Summary Reactivity,Ovary: Eipthelium,270
same,# Pos/Exam,Ovary: Granulosa,1/3
same,Summary Reactivity,Ovary: Granulosa,400
same,# Pos/Exam,Ovary: Serosa,0/3
same,Summary Reactivity,Ovary: Serosa,0
same,# Pos/Exam,Ovary: Theca,0/3
same,Summary Reactivity,Ovary: Theca,0
same,# Pos/Exam,Oviduct: Epithelium,1/1
same,Summary Reactivity,Oviduct: Epithelium,500
same,# Pos/Exam,Oviduct: Smooth Muscle,0/3
same,Summary Reactivity,Oviduct: Smooth Muscle,0
same,# Pos/Exam,Pancreas: Acinar Cell,3/3
same,Summary Reactivity,Pancreas: Acinar Cell,500
same,# Pos/Exam,Pancreas: Duct Epthelium,3/3
same,Summary Reactivity,Pancreas: Duct Epthelium,500
same,# Pos/Exam,Pancreas: Islet Cell,3/3
same,Summary Reactivity,Pancreas: Islet Cell,500
same,# Pos/Exam,Peritoneum: Mesothelium,0/1
same,Summary Reactivity,Peritoneum: Mesothelium,0
same,# Pos/Exam,Pituitary: Adenohypophysis,2/2
same,Summary Reactivity,Pituitary: Adenohypophysis,500
same,# Pos/Exam,Pituitary: Neurohypophysis,0/2
same,Summary Reactivity,Pituitary: Neurohypophysis,0
same,# Pos/Exam,Placenta: Trophoblasts,0/3
same,Summary Reactivity,Placenta: Trophoblasts,0
same,# Pos/Exam,Prostate: Concretions,0/3
same,Summary Reactivity,Prostate: Concretions,0
same,# Pos/Exam,Prostate: Glandular Epithelium,3/3
same,Summary Reactivity,Prostate: Glandular Epithelium,400
same,# Pos/Exam,Prostate: Smooth Muscle,0/3
same,Summary Reactivity,Prostate: Smooth Muscle,0
same,# Pos/Exam,Rectum: Lymph Node,0/2
same,Summary Reactivity,Rectum: Lymph Node,0
same,# Pos/Exam,Rectum: Mucosal Epithelium,0/2
same,Summary Reactivity,Rectum: Mucosal Epithelium,0
same,# Pos/Exam,Rectum: Muscularis Externa,0/1
same,Summary Reactivity,Rectum: Muscularis Externa,0
same,# Pos/Exam,Rectum: Muscularis Mucosa,0/3
same,Summary Reactivity,Rectum: Muscularis Mucosa,0
same,# Pos/Exam,Rectum: Nerve Ganglia,0/3
same,Summary Reactivity,Rectum: Nerve Ganglia,0
same,# Pos/Exam,[1],3/3
same,Summary Reactivity,[1],500
same,# Pos/Exam,[2],3/3
same,Summary Reactivity,[2],500
same,# Pos/Exam,Skin: Apocrine Glands,3/3
same,Summary Reactivity,Skin: Apocrine Glands,280
same,# Pos/Exam,Skin: Basal Layer,3/3
same,Summary Reactivity,Skin: Basal Layer,33
same,# Pos/Exam,Skin: Epithelium,1/3
same,Summary Reactivity,Skin: Epithelium,10
same,# Pos/Exam,Skin: Follicle,1/1
same,Summary Reactivity,Skin: Follicle,190
same,# Pos/Exam,Skin: Stratum Corneum,0/3
same,Summary Reactivity,Skin: Stratum Corneum,0
same,# Pos/Exam,"Spinal Cord: Axons, Myelinated",0/2
same,Summary Reactivity,"Spinal Cord: Axons, Myelinated",0
same,# Pos/Exam,Spinal Cord: Microglial,0/2
same,Summary Reactivity,Spinal Cord: Microglial,0
same,# Pos/Exam,Spinal Cord: Neurons,0/2
same,Summary Reactivity,Spinal Cord: Neurons,0
same,# Pos/Exam,[3],0/3
same,Summary Reactivity,[3],0
same,# Pos/Exam,[4],0/3
same,Summary Reactivity,[4],0
same,# Pos/Exam,[5],0/3
same,Summary Reactivity,[5],0
same,# Pos/Exam,Stomach: Chief Cells,3/3
same,Summary Reactivity,Stomach: Chief Cells,290
same,# Pos/Exam,Stomach: Mucosal Epithelium,3/3
same,Summary Reactivity,Stomach: Mucosal Epithelium,367
same,# Pos/Exam,[6],0/3
same,Summary Reactivity,[6],0
same,# Pos/Exam,Stomach: Parietal Cells,3/3
same,Summary Reactivity,Stomach: Parietal Cells,290
same,# Pos/Exam,Stomach: Smooth Muscle,0/3
same,Summary Reactivity,Stomach: Smooth Muscle,0
same,# Pos/Exam,Stromal Tissue: Adipose,0/63
same,Summary Reactivity,Stromal Tissue: Adipose,0
same,# Pos/Exam,[7],0/120
same,Summary Reactivity,[7],0
same,# Pos/Exam,Stromal Tissue: Endothelium,0/120
same,Summary Reactivity,Stromal Tissue: Endothelium,0
same,# Pos/Exam,[8],0/120
same,Summary Reactivity,[8],0
same,# Pos/Exam,Stromal Tissue: Macrophages,0/117
same,Summary Reactivity,Stromal Tissue: Macrophages,0
same,# Pos/Exam,[9],0/86
same,Summary Reactivity,[9],0
same,# Pos/Exam,Testis: Interstitial Cells,0/3
same,Summary Reactivity,Testis: Interstitial Cells,0
same,# Pos/Exam,Testis: Sertoli Cells,3/3
same,Summary Reactivity,Testis: Sertoli Cells,93
same,# Pos/Exam,Thymus: Hassal's Epithelium,3/3
same,Summary Reactivity,Thymus: Hassal's Epithelium,147
same,# Pos/Exam,Thymus: Hassal's Keratin,3/3
same,Summary Reactivity,Thymus: Hassal's Keratin,333
same,# Pos/Exam,Thymus: Lymphoid Cortex,0/3
same,Summary Reactivity,Thymus: Lymphoid Cortex,0
same,# Pos/Exam,Thymus: Lymphoid Medulla,3/3
same,Summary Reactivity,Thymus: Lymphoid Medulla,167
same,# Pos/Exam,Thyroid: C-Cells,0/3
same,Summary Reactivity,Thyroid: C-Cells,0
same,# Pos/Exam,Thyroid: Colloid,0/3
same,Summary Reactivity,Thyroid: Colloid,0
same,# Pos/Exam,Thyroid: Follicular Epithelium,3/3
same,Summary Reactivity,Thyroid: Follicular Epithelium,500
same,# Pos/Exam,Tonsil: Epithelium,1/3
same,Summary Reactivity,Tonsil: Epithelium,500
same,# Pos/Exam,[10],0/3
same,Summary Reactivity,[10],0
same,# Pos/Exam,[11],0/3
same,Summary Reactivity,[11],0
same,# Pos/Exam,Tonsil: Mucus Gland,1/1
same,Summary Reactivity,Tonsil: Mucus Gland,300
same,# Pos/Exam,Tonsil: Striated Muscle,0/3
same,Summary Reactivity,Tonsil: Striated Muscle,0
same,# Pos/Exam,Umbilical Cord: Epithelium,0/3
same,Summary Reactivity,Umbilical Cord: Epithelium,0
same,# Pos/Exam,[12],3/3
same,Summary Reactivity,[12],433
same,# Pos/Exam,Urinary Bladder: Serosa,0/1
same,Summary Reactivity,Urinary Bladder: Serosa,0
same,# Pos/Exam,Urinary Bladder: Smooth Muscle,0/3
same,Summary Reactivity,Urinary Bladder: Smooth Muscle,0
same,# Pos/Exam,Uterus: Endometrial Epithelium,3/3
same,Summary Reactivity,Uterus: Endometrial Epithelium,500
same,# Pos/Exam,Uterus: Endometrial Glands,3/3
same,Summary Reactivity,Uterus: Endometrial Glands,500
same,# Pos/Exam,Uterus: Smooth Muscle,0/3
same,Summary Reactivity,Uterus: Smooth Muscle,0
same,# Pos/Exam,[13],1/1
same,Summary Reactivity,[13],500
same,# Pos/Exam,Vagina/Cervix: Smooth Muscle,0/2
same,Summary Reactivity,Vagina/Cervix: Smooth Muscle,0
same,# Pos/Exam,[14],1/1
same,Summary Reactivity,[14],200
